The record followed here is PMC8501970, “Structural basis for activation of Swi2/Snf2 ATPase RapA by RNA polymerase” (Nucleic Acids Research, 2021).

In test [1] the target is T1, RNAP β subunit (Escherichia coli, UniProt P0A8V2 1-1342).
T1 construct: RNA polymerase beta subunit, Escherichia coli, as in the core enzyme m2; Stood in the structure as a subunit of the RNAP elongation complex; also called β flap tip helix (FTH) lies in it; source: part of the purified E. coli RNAP core enzyme
Put plainly: cryo-EM structure; RapA–RNAP complex purified by gel filtration, 10 μM incubated with 25 μM DNA/RNA hybrid in 20 mM Tris–HCl pH 7.5, 50 mM NaCl, 5 mM MgCl2, 0.2 mM AMPPNP at 37°C for 10 min; 8 mM CHAPSO added before grids; 3.4 Å map. Particulars: both partners purified.

Test [2] addresses T2, RNAP β' subunit (Escherichia coli, UniProt P0A8T7 1-1407).
T2 construct: RNA polymerase beta' subunit, Escherichia coli, as in the core enzyme m2; Stood in the structure as a subunit of the RNAP elongation complex; source: part of the purified E. coli RNAP core enzyme
The description is as above. Conditions: both partners purified.

T2 sequence (P0A8T7 whole entry): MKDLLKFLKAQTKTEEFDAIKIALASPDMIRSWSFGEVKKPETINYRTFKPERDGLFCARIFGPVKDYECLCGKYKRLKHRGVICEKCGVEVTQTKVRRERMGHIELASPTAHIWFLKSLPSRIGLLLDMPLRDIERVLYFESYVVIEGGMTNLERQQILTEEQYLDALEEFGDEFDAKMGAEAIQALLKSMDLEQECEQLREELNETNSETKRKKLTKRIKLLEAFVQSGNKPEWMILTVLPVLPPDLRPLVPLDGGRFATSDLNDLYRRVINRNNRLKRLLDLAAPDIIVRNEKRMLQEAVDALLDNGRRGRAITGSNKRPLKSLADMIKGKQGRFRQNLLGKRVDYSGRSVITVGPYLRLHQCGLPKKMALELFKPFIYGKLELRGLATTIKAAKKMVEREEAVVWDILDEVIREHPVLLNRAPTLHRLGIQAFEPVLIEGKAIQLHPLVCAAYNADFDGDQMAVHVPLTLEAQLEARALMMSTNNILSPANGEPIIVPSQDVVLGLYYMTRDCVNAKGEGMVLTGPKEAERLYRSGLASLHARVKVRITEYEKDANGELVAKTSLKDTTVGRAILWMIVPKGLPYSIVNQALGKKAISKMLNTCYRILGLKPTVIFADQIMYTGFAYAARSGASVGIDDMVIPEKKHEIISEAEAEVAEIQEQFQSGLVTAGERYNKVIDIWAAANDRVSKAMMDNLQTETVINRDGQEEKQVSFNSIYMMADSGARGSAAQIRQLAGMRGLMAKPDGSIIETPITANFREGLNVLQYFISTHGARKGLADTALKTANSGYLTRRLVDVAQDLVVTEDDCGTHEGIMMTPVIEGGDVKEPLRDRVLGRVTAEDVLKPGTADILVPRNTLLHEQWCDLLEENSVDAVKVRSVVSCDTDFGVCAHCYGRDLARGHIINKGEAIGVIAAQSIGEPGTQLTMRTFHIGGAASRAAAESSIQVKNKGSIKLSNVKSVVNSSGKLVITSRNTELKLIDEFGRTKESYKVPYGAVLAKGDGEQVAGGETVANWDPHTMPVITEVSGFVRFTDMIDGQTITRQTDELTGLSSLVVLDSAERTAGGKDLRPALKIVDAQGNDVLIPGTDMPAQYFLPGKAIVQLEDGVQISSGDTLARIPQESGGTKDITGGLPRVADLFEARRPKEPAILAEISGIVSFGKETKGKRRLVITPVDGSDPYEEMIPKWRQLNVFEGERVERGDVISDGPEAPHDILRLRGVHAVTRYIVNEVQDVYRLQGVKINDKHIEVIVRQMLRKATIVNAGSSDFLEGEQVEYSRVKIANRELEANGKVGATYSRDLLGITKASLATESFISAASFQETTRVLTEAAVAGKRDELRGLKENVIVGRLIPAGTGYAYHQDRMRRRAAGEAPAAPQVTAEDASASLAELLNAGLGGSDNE
T1 sequence (P0A8V2 whole entry): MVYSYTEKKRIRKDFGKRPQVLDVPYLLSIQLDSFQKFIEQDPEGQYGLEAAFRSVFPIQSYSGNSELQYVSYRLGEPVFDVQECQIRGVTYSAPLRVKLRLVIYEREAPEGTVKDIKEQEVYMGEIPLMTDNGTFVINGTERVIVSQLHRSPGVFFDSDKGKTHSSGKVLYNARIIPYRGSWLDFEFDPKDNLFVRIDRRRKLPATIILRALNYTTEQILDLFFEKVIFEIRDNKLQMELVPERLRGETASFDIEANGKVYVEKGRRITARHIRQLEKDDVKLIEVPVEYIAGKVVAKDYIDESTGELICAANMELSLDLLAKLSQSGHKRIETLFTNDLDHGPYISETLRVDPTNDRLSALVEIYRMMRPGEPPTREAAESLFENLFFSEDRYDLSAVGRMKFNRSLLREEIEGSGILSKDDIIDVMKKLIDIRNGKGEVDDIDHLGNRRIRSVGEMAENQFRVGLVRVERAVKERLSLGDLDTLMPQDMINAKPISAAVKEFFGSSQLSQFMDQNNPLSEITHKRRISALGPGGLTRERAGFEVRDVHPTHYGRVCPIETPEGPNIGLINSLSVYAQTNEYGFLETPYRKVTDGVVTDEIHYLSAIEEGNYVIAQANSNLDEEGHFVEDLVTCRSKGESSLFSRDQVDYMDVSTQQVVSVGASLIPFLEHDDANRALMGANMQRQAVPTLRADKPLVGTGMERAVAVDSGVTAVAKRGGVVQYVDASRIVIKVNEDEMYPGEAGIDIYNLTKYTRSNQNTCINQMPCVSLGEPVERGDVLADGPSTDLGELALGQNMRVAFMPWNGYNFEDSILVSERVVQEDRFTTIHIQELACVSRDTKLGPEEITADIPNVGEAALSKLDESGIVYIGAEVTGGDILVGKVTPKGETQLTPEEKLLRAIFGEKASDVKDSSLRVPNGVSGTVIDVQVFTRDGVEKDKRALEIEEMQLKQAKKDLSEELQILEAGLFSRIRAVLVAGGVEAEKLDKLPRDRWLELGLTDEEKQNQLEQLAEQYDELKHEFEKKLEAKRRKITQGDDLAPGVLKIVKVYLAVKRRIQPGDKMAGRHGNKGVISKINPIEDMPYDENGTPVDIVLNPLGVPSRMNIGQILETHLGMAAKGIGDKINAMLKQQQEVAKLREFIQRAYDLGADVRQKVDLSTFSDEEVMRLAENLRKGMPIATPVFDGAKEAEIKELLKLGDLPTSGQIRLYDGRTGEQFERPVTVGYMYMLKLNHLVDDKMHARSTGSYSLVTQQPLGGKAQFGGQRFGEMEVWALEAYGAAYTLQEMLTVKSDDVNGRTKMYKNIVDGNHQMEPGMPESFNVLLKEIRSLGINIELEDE

B1: N-terminal His-tagged RapA protein (enzyme, Escherichia coli)
chain: MPFTLGQRWISDTESELGLGTVVAVDARTVTLLFPSTGENRLYARSDSPVTRVMFNPGDTITSHDGWQMQVEEVKEENGLLTYIGTRLDTEESGVALREVFLDSKLVFSKPQDRLFAGQIDRMDRFALRYRARKYSSEQFRMPYSGLRGQRTSLIPHQLNIAHDVGRRHAPRVLLADEVGLGKTIEAGMILHQQLLSGAAERVLIIVPETLQHQWLVEMLRRFNLRFALFDDERYAEAQHDAYNPFDTEQLVICSLDFARRSKQRLEHLCEAEWDLLVVDEAHHLVWSEDAPSREYQAIEQLAEHVPGVLLLTATPEQLGMESHFARLRLLDPNRFHDFAQFVEEQKNYRPVADAVAMLLAGNKLSNDELNMLGEMIGEQDIEPLLQAANSDSEDAQSARQELVSMLMDRHGTSRVLFRNTRNGVKGFPKRELHTIKLPLPTQYQTAIKVSGIMGARKSAEDRARDMLYPERIYQEFEGDNATWWNFDPRVEWLMGYLTSHRSQKVLVICAKAATALQLEQVLREREGIRAAVFHEGMSIIERDRAAAWFAEEDTGAQVLLCSEIGSEGRNFQFASHMVMFDLPFNPDLLEQRIGRLDRIGQAHDIQIHVPYLEKTAQSVLVRWYHEGLDAFEHTCPTGRTIYDSVYNDLINYLASPDQTEGFDDLIKNCREQHEALKAQLEQGRDRLLEIHSNGGEKAQALAESIEEQDDDTNLIAFAMNLFDIIGINQDDRGDNMIVLTPSDHMLVPDFPGLSEDGITITFDREVALAREDAQFITWEHPLIRNGLDLILSGDTGSSTISLLKNKALPVGTLLVELIYVVEAQAPKQLQLNRFLPPTPVRMLLDKNGNNLAAQVEFETFNRQLNAVNRHTGSKLVNAVQQDVHAILQLGEAQIEKSARALIDAARNEADEKLSAELSRLEALRAVNPNIRDDELTAIESNRQQVMESLDQAGWRLDALRLIVVTHQ
notes: RapA (HepA), RNA polymerase-associated Swi2/Snf2 ATPase, Escherichia coli; construct of the cryo-EM sample; also called HepA
For the molecule B1, the binding result in test [1] and in test [2] was “binds” in each case.
